Source: US20250034269A1 (Hoffmann-La Roche, published 2025)
Positions count from the first letter of the chain named.

B1: P1AF4664 (bispecific antibody, mouse IgG1, kappa)
heavy 1: EVQLLESGGGLVQPGGSLRLSCAASGFTFSYYAMTWVRQAPGKGLEWIGVINSGGGTYYTDSVKGRFTMSRDNSKNTLYLQVNSLRAEDTAVYYCAKASTADVWGQGTTVTVSSAKTTPPSVYPLAPGSAAQTNSMVTLGCLVEGYFPEPVTVTWNSGSLSSGVHTFPAVLQSDLYTLSSSVTVPSSTWPSQTVTCNVAHPASSTKVDEKIVPRDCGCKPCICTVPEVSSVFIFPPKPKDVLTITLTPKVTCVVVAISKDDPEVQFSWFVDDVEVHTAQTKPREEQINSTFRSVSELPIMHQDWLNGKEFKCRVNSAAFGAPIEKTISKTKGRPKAPQVYTIPPPKKQMAKDKVSLTCMITNFFPEDITVEWQWNGQPAENYKNTQPIMKTDGSYFVYSKLNVQKSNWEAGNTFTCSVLHEGLHNHHTEKSLSHSPG
light 1: DIQMTQSPSSLSASVGDRVTITCQASQGISNYLSWYQQKPGKAPKRLIFAASSLESGVPSRFSGSGSGTDFTLTISSLQPEDFATYYCQQYNSYSLTFGGGTKLEIKRADAAPTVSIFPPSSRKLTSGGASVVCFLNNFYPKDINVKWKIDGSERQNGVLNSWTDQDSKDSTYSMSSTLTLTKDEYERHNSYTCEATHKTSTSPIVKSFNRNEC
heavy 2: EIVLTQSPGTLSLSPGERATLSCRASQSVSRSYLAWYQQKPGQAPRLLIIGASTRATGIPDRFSGSGSGTDFTLTISRLEPEDFAVYYCQQGQVIPPTFGQGTKVEIKSSAKTTPPSVYPLAPGSAAQTNSMVTLGCLVKGYFPEPVTVTWNSGSLSSGVHTFPAVLQSDLYTLSSSVTVPSSTWPSQTVTCNVAHPASSTKVDKKIVPRDCGCKPCICTVPEVSSVFIFPPKPKDVLTITLTPKVTCVVVAISKDDPEVQFSWFVDDVEVHTAQTKPREEQINSTFRSVSELPIMHQDWLNGKEFKCRVNSAAFGAPIEKTISKTKGRPKAPQVYTIPPPKEQMAKDKVSLTCMITNFFPEDITVEWQWNGQPAENYDNTQPIMDTDGSYFVYSDLNVQKSNWEAGNTFTCSVLHEGLHNHHTEKSLSHSPG
light 2: EVQLLESGGGLVQPGGSLRLSCAASGFTFSSHAMSWVRQAPGKGLEWVSAIWASGEQYYADSVKGRFTISRDNSKNTLYLQMNSLRAEDTAVYYCAKGWLGNFDYWGQGTLVTVSSRADAAPTVSIFPPSSEQLTSGGASVVCFLNNFYPKDINVKWKIDGSERQNGVLNSWTDQDSKDSTYSMSSTLTLTKDEYERHNSYTCEATHKTSTSPIVKSFNRNEC
notes: 1+1 anti-LTBR (0080)/anti-FAP (28H1) murine IgG1 DA PG crossMab; also called murine 1+1 surrogate
B2: P1AF4674 (bispecific antibody, mouse IgG1, kappa)
heavy 1: EVQLLESGGGLVQPGGSLRLSCAASGFTFSYYAMTWVRQAPGKGLEWIGVINSGGGTYYTDSVKGRFTMSRDNSKNTLYLQVNSLRAEDTAVYYCAKASTADVWGQGTTVTVSSAKTTPPSVYPLAPGSAAQTNSMVTLGCLVEGYFPEPVTVTWNSGSLSSGVHTFPAVLQSDLYTLSSSVTVPSSTWPSQTVTCNVAHPASSTKVDEKIVPRDCGCKPCICTVPEVSSVFIFPPKPKDVLTITLTPKVTCVVVAISKDDPEVQFSWFVDDVEVHTAQTKPREEQINSTFRSVSELPIMHQDWLNGKEFKCRVNSAAFGAPIEKTISKTKGRPKAPQVYTIPPPKKQMAKDKVSLTCMITNFFPEDITVEWQWNGQPAENYKNTQPIMKTDGSYFVYSKLNVQKSNWEAGNTFTCSVLHEGLHNHHTEKSLSHSPGGGGGSGGGGSGGGGSGGGGSEVQLLESGGGLVQPGGSLRLSCAASGFTFSSHAMSWVRQAPGKGLEWVSAIWASGEQYYADSVKGRFTISRDNSKNTLYLQMNSLRAEDTAVYYCAKGWLGNFDYWGQGTLVTVSSRADAAPTVSIFPPSSEQLTSGGASVVCFLNNFYPKDINVKWKIDGSERQNGVLNSWTDQDSKDSTYSMSSTLTLTKDEYERHNSYTCEATHKTSTSPIVKSFNRNEC
light 1: B1 light 1
heavy 2: B1 heavy 1 with K347E, K383D, K390D, K400D
light 2: EIVLTQSPGTLSLSPGERATLSCRASQSVSRSYLAWYQQKPGQAPRLLIIGASTRATGIPDRFSGSGSGTDFTLTISRLEPEDFAVYYCQQGQVIPPTFGQGTKVEIKSSAKTTPPSVYPLAPGSAAQTNSMVTLGCLVKGYFPEPVTVTWNSGSLSSGVHTFPAVLQSDLYTLSSSVTVPSSTWPSQTVTCNVAHPASSTKVDKKIVPRDC
notes: 2+1 anti-LTBR (0080)/anti-FAP (28H1) murine IgG1 DA PG crossMab; also called murine 2+1 surrogate

How the values were obtained:
[1] = target: murine FAP-Avi-His biotinylated (P1AD9907) (mouse, UniProt P97321 27-761, biotinylated avi tag); test: SPR affinity set-up, antibody captured
[2] = target: T1, monomeric murine LTBR ECD (S28-L223) Fc fusion avi biotinylated (P1AE4410) (mouse, UniProt P0DOX5 223-449 = IgG part, biotinylated avi tag); test: SPR affinity set-up, antibody captured
T1 construct: also called mu LTBR

[3] = target: T1, monomeric murine LTBR ECD (S28-L223) Fc …; test: SPR avidity set-up, LTBR on SA chip

Row | Binder | Kd [1] [nM] | Kd [2] [nM] | t1/2 [2] [min] | t1/2 [3] [min]
1 | B1 | < 0.1 | 13 | 1.25 | 0.75
2 | B2 | < 0.1 | 13 | 1.18 | 6.88
